Test results reported in patent US20120136195A1, “DRUG DELIVERY SYSTEM OF TARGET DRUG AND METHOD OF IMPLEMENTING THE SAME” (priority 2010, published 2012).

Experiment: Impact of ultrasound acoustic pressure on enzyme activity of the drug
Type: physicochemical
From the text: In the evaluation of ultrasound power and parameter adjustment, and their impacts on enzyme activity, in order to ascertain whether ultrasound could affect drug activity, thus evaluating correctly the benefit of the present invention, therefore in an experiment, various acoustic pressure are given, and evaluations are made for activity of drug on the magnetic particles after applying various numbers of pulses. […] From the result it can be confirmed that, the present invention is able to cause suspension of magnetic particles, while reducing as much as possible its impact on the drug carried by the magnetic particles.

In the case of “recombinant tissue plasminogen activator [rtPA]”, the “enzyme activity after applying ultrasound” value (acoustic pressure of 7.1 MPa (FIG. 9)) is reported as “apparent loss of enzyme activity” and the “enzyme activity after applying ultrasound” value (lower acoustic pressure (below 7.1 MPa, FIG. 9)) is reported as “will not be affected”.
